B1: ZNF193 (parent)
chain: QKRYHCKECGKVFSQSAGLIQHQR
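Also: lentivirally expressed fusions sorted by FACS into six bins by GFP to DsRed ratio, PSI derived from sequencing read proportions per bin multiplied by bin number.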

Variants of B1 are the subject of the data set. Kind of data set: protein stability index of a GFP-peptide fusion (GPS, HEK-293T) (PSI 1-6); higher = more stable. The settings on record: c terminus: a fixed tail appended.
Take QKRRHCKECGKVFSQSAGLIQHQR [Y4R]: the protein stability index was 1.98. For QKRCHCKECGKVFSQSAGLIQHQR [Y4C], the protein stability index amounted to 2.41. For QKRMHCKECGKVFSQSAGLIQHQR [Y4M], the protein stability index is 2.17. In the case of QKRAHCKECGKVFSQSAGLIQHQR [Y4A] it was 1.99; in that of QKRQHCKECGKVFSQSAGLIQHQR [Y4Q], 2.42; in that of QKRGHCKECGKVFSQSAGLIQHQR [Y4G], 2.14. Next, QKREHCKECGKVFSQSAGLIQHQR [Y4E]: 2.15; QKRLHCKECGKVFSQSAGLIQHQR [Y4L]: 2.4; QKRTHCKECGKVFSQSAGLIQHQR [Y4T]: 1.97. Next, QKRHHCKECGKVFSQSAGLIQHQR [Y4H]: 2.47; QKRNHCKECGKVFSQSAGLIQHQR [Y4N]: 2.39.

In the case of QKRVHCKECGKVFSQSAGLIQHQR [Y4V], the protein stability index came out at 2.25. Turning to QKRKHCKECGKVFSQSAGLIQHQR [Y4K], the protein stability index is 2.65.

QKRIHCKECGKVFSQSAGLIQHQR [Y4I]: the protein stability index turned out to be 2.4.

In the case of QKRDHCKECGKVFSQSAGLIQHQR [Y4D], the protein stability index was determined as 2.48. Next, QKRSHCKECGKVFSQSAGLIQHQR [Y4S]: 2.11; QKRWHCKECGKVFSQSAGLIQHQR [Y4W]: 2.86. In the case of QKRFHCKECGKVFSQSAGLIQHQR [Y4F] it was 2.72; in that of QKRPHCKECGKVFSQSAGLIQHQR [Y4P], 2.47; in that of QVRYHCKECGKVFSQSAGLIQHQR [K2V], 2.58. Next, QTRYHCKECGKVFSQSAGLIQHQR [K2T]: 2.24; QSRYHCKECGKVFSQSAGLIQHQR [K2S]: 2.48.

QYRYHCKECGKVFSQSAGLIQHQR [K2Y]: the protein stability index is 2.6. Next, QMRYHCKECGKVFSQSAGLIQHQR [K2M]: 3.1; QIRYHCKECGKVFSQSAGLIQHQR [K2I]: 2.81; QPRYHCKECGKVFSQSAGLIQHQR [K2P]: 3.07.

In the case of QQRYHCKECGKVFSQSAGLIQHQR [K2Q], the protein stability index came to 3.04. Next, QLRYHCKECGKVFSQSAGLIQHQR [K2L]: 2.81; QRRYHCKECGKVFSQSAGLIQHQR [K2R]: 2.76. Next, QNRYHCKECGKVFSQSAGLIQHQR [K2N]: 2.86; QWRYHCKECGKVFSQSAGLIQHQR [K2W]: 2.17; QKAYHCKECGKVFSQSAGLIQHQR [R3A]: 3.18.

For QKKYHCKECGKVFSQSAGLIQHQR [R3K], the protein stability index was 3.23. QKHYHCKECGKVFSQSAGLIQHQR [R3H]: the protein stability index stood at 2.92. Next, QKVYHCKECGKVFSQSAGLIQHQR [R3V]: 3.2; QKGYHCKECGKVFSQSAGLIQHQR [R3G]: 2.93. As for QKDYHCKECGKVFSQSAGLIQHQR [R3D], the protein stability index was determined as 2.35.

Turning to QKNYHCKECGKVFSQSAGLIQHQR [R3N], the protein stability index came out at 2.87. Next, QKYYHCKECGKVFSQSAGLIQHQR [R3Y]: 3.52; QKMYHCKECGKVFSQSAGLIQHQR [R3M]: 3.23.

Turning to QKCYHCKECGKVFSQSAGLIQHQR [R3C], the protein stability index was determined as 3.48.

Turning to QKPYHCKECGKVFSQSAGLIQHQR [R3P], the protein stability index stood at 2.98. In the case of QKSYHCKECGKVFSQSAGLIQHQR [R3S], the protein stability index amounted to 3.12. In the case of QKIYHCKECGKVFSQSAGLIQHQR [R3I] it was 3.55. Next, QKQYHCKECGKVFSQSAGLIQHQR [R3Q]: 3.33. In the case of QKFYHCKECGKVFSQSAGLIQHQR [R3F] it was 3.6; in that of QKLYHCKECGKVFSQSAGLIQHQR [R3L], 3.58; in that of QKWYHCKECGKVFSQSAGLIQHQR [R3W], 3.52.

For the variant QKEYHCKECGKVFSQSAGLIQHQR [R3E], the protein stability index came to 3.26. Next, QKTYHCKECGKVFSQSAGLIQHQR [R3T]: 3.59; QKRYTCKECGKVFSQSAGLIQHQR [H5T]: 3.23.

Regarding QKRYACKECGKVFSQSAGLIQHQR [H5A], the protein stability index stood at 3.25.

Consider QKRYRCKECGKVFSQSAGLIQHQR [H5R], for which the protein stability index is 3.9.

QKRYCCKECGKVFSQSAGLIQHQR [H5C]: the protein stability index came out at 3.34. In the case of QKRYMCKECGKVFSQSAGLIQHQR [H5M] it was 4.01. Turning to QKRYYCKECGKVFSQSAGLIQHQR [H5Y], the protein stability index was 3.29. As to QKRYVCKECGKVFSQSAGLIQHQR [H5V], the protein stability index was determined as 3.95.

As for QKRYICKECGKVFSQSAGLIQHQR [H5I], the protein stability index is 3.91. QKRYSCKECGKVFSQSAGLIQHQR [H5S]: the protein stability index was 2.94. In the case of QKRYDCKECGKVFSQSAGLIQHQR [H5D] it was 2.37.

Regarding QKRYNCKECGKVFSQSAGLIQHQR [H5N], the protein stability index came to 2.77. Next, QKRYFCKECGKVFSQSAGLIQHQR [H5F]: 3.01; QKRYLCKECGKVFSQSAGLIQHQR [H5L]: 3.75; QKRYGCKECGKVFSQSAGLIQHQR [H5G]: 2.23. Turning to QKRYECKECGKVFSQSAGLIQHQR [H5E], the protein stability index stood at 3.62.

In the case of QKRYKCKECGKVFSQSAGLIQHQR [H5K], the protein stability index worked out at 3.92.

As to QKRYWCKECGKVFSQSAGLIQHQR [H5W], the protein stability index was 2.98. In the case of QKRYPCKECGKVFSQSAGLIQHQR [H5P] it was 3.1; in that of QKRYQCKECGKVFSQSAGLIQHQR [H5Q], 3.88; in that of QKRYHYKECGKVFSQSAGLIQHQR [C6Y], 1.73.

For QKRYHWKECGKVFSQSAGLIQHQR [C6W], the protein stability index worked out at 1.96. Next, QKRYHTKECGKVFSQSAGLIQHQR [C6T]: 2.83; QKRYHAKECGKVFSQSAGLIQHQR [C6A]: 2.63.

QKRYHKKECGKVFSQSAGLIQHQR [C6K]: the protein stability index is 2.69.

QKRYHFKECGKVFSQSAGLIQHQR [C6F]: the protein stability index came out at 2.08. Next, QKRYHIKECGKVFSQSAGLIQHQR [C6I]: 2.12; QKRYHNKECGKVFSQSAGLIQHQR [C6N]: 2.74; QKRYHRKECGKVFSQSAGLIQHQR [C6R]: 2.6. Next, QKRYHSKECGKVFSQSAGLIQHQR [C6S]: 2.88; QKRYHPKECGKVFSQSAGLIQHQR [C6P]: 2.18; QKRYHGKECGKVFSQSAGLIQHQR [C6G]: 2.62. For QKRYHLKECGKVFSQSAGLIQHQR [C6L], the protein stability index was 2.31. Next, QKRYHEKECGKVFSQSAGLIQHQR [C6E]: 3.74. In the case of QKRYHQKECGKVFSQSAGLIQHQR [C6Q], the protein stability index worked out at 2.28.

On to QKRYHHKECGKVFSQSAGLIQHQR [C6H], for which the protein stability index came to 2.24. Next, QKRYHDKECGKVFSQSAGLIQHQR [C6D]: 3.05; QKRYHMKECGKVFSQSAGLIQHQR [C6M]: 2.75; QKRYHVKECGKVFSQSAGLIQHQR [C6V]: 2.8. For QKRYHCEECGKVFSQSAGLIQHQR [K7E], the protein stability index turned out to be 3.52. Consider QKRYHCFECGKVFSQSAGLIQHQR [K7F], for which the protein stability index worked out at 2.53. As to QKRYHCCECGKVFSQSAGLIQHQR [K7C], the protein stability index came out at 2.65.

For QKRYHCGECGKVFSQSAGLIQHQR [K7G], the protein stability index was 2.92.

For QKRYHCAECGKVFSQSAGLIQHQR [K7A], the protein stability index was found to be 2.95. Next, QKRYHCDECGKVFSQSAGLIQHQR [K7D]: 3.15.
